Laboratory results as given in US20070196371A1 (ZymoGenetics, published 2007).

T1: mouse IL-17RCx1, on transfected cells (mouse, UniProt Q8K4C2 22-698)
T1 construct: also called murine IL-17RCx1; IL-17RCx1 (mouse)
T1 sequence: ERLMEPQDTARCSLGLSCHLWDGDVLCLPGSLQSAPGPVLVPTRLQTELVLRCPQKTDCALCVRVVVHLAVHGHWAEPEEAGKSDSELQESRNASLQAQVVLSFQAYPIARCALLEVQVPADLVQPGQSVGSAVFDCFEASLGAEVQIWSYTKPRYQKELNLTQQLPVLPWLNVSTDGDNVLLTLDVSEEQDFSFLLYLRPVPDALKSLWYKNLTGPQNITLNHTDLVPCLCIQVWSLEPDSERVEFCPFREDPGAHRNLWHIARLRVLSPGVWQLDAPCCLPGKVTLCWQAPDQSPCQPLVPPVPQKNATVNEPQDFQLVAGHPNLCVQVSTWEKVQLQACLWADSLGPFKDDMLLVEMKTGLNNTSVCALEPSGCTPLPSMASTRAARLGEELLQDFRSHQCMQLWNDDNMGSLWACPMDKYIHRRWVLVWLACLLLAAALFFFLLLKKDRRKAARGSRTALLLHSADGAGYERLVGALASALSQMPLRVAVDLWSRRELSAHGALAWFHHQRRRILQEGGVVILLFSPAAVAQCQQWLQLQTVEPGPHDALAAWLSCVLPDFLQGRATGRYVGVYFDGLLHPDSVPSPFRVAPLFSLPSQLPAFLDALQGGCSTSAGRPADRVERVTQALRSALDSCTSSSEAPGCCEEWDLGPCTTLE

T2: human IL-17RC (IL-17RCx1), full length on transfected cells (human, UniProt Q8NAC3 21-791)
T2 construct: Expressed on BHK, 293T or nih3t3/kz142.8 cells; also called hIL-17RC; hIL-17RCX1
T2 sequence: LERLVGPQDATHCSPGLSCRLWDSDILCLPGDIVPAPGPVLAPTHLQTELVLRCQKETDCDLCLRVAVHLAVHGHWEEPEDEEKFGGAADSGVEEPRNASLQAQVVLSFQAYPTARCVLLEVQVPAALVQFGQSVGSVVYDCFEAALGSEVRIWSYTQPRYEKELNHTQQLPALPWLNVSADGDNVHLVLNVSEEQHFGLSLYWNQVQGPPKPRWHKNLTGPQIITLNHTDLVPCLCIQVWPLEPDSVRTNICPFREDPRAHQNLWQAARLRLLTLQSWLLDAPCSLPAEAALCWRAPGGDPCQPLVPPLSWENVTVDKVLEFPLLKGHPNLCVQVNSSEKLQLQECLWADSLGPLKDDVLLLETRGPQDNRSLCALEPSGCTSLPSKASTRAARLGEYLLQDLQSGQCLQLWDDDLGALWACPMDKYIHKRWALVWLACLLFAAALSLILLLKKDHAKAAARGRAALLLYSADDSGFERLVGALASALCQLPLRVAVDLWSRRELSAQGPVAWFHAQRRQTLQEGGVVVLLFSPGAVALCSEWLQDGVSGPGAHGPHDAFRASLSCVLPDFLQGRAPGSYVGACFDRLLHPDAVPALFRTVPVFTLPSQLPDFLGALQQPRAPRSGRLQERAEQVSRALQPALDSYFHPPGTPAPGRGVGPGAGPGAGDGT

T3: human IL-17RCx4, on transfected 293T cells (human, UniProt Q8NAC3 21-791)
T3 construct: Splice variant that includes exons 7, 8 and 12
T3 sequence: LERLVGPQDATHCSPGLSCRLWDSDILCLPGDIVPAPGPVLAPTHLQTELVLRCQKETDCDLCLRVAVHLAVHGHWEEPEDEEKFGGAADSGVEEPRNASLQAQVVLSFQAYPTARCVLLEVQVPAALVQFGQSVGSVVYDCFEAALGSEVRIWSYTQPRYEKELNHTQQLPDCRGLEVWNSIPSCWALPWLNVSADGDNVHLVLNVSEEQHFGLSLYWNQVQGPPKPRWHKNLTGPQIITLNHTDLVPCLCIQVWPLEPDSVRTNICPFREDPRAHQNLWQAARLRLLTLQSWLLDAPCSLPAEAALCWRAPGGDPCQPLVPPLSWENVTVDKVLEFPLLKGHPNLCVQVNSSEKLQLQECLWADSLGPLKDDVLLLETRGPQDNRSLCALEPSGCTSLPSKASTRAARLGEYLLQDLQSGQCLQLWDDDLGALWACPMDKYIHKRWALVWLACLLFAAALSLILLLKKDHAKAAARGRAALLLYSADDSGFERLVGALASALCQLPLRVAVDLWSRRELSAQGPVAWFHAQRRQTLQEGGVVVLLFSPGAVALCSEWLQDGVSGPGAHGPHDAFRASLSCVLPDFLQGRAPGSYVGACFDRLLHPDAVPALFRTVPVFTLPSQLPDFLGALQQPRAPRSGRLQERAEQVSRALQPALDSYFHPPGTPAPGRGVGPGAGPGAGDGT

T4: human IL-17 receptor (IL-17R), on transfected cells (human, UniProt Q96F46 33-320)
T4 sequence: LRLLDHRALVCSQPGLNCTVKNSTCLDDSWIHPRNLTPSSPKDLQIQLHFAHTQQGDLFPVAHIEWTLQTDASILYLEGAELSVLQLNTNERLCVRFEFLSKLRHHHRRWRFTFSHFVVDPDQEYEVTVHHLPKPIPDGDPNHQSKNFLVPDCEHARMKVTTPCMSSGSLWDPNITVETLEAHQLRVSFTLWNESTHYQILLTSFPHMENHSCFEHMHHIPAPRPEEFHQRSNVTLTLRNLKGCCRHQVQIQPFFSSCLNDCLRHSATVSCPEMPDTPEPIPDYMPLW

B1: mouse IL-17F (ligand)
chain: RKNPKAGVPALQKAGNCPPLEDNTVRVDIRIFNQNQGISVPREFQNRSSSPWDYNITRDPHRFPSEIAEAQCRHSGCINAQGQEDSTMNSVAIQQEILVLRREPQGCSNSFRLEKMLLKVGCTCVKPIVHQAA
modifications: biotinylated in Example 31
notes: also called murine IL-17F; MuIL-17F
B2: mouse IL-17A (ligand)
chain: AAIIPQSSACPNTEAKDFLQNVKVNLKVFNSLGAKVSSRRPSDYLNRSTSPWTLHRNEDPDRYPSVIWEAQCRHQRCVNAEGKLDHHMNSVLIQQEILVLKREPESCPFTFRVEKMLVGVGCTCVASIVRQAA
modifications: biotinylated in Example 31
notes: also called murine IL-17A; mIL-17A
B3: human IL-17F (ligand)
chain: RKIPKVGHTFFQKPESCPPVPGGSMKLDIGIINENQRVSMSRNIESRSTSPWNYTVTWDPNRYPSEVVQAQCRNLGCINAQGKEDISMNSVPIQQETLVVRRKHQGCSVSFQLEKVLVTVGCTCVTPVIHHVQ
modifications: biotinylated (flow cytometry) or 125I-radiolabeled by the iodobead method (radioligand assays); unlabeled as cold competitor; expressed from cDNA in COS cells in the secretion trap
notes: also called huIL-17F; hIL-17F

What was measured:
[1] = biological target: T1, mouse IL-17RCx1, on transfected cells; test: FACS, biotinylated cytokine on transfected cells; (-) = no significant change in fluorescence
[2] = biological target: T2, human IL-17RC (IL-17RCx1), full length …; test: FACS, biotinylated cytokine on transiently transfected 293T cells; (-) = no significant change in fluorescence
Description: (§1) Those chosen for this analysis also differed in their inclusion or exclusion of exon 7 and exon 12. These variants were designated human IL-17RCx1, IL-17RCx4, IL-17RCx2, and IL-17RCx7 and these are also illustrated in Table 6 below.

[3] = biological target: T3, human IL-17RCx4, on transfected 293T …; test: FACS, biotinylated cytokine on transiently transfected 293T cells; (+) = significant increase in fluorescence
[4] = biological target: T3, human IL-17RCx4, on transfected 293T …; test: FACS, biotinylated cytokine on transiently transfected 293T cells; (-) = no significant change in fluorescence
Description: as §1

[5] = biological target: T2, human IL-17RC (IL-17RCx1), full length …; test: cell-based or functional assay
[6] = biological target: T2, human IL-17RC (IL-17RCx1), full length …; test: saturation radioligand binding on BHK hIL-17RC cells, experiment 1; high affinity site of two-site fit
Description: (§2) Cold competitors were added in 100 fold molar excess. […] Wells were incubated on ice for 1-hour followed by two washes with PBS (Invitrogen 20012-027) and one wash with a high salt solution (1.5M NaCL, 50 mM HEPES pH 7.4). Wells were extracted with 500 ul of 0.8M NaOH for 30 min. at room temperature and counts per minute were measured in a gamma counter (Packard Cobra II A5005).
(§3) Transfected BHK cells were plated into 24-well dishes as in one. […] Separately, 100 fold molar excess of cold ligand was added at each dilution point. Cells were washed, extracted and counted as in one. Specific counts per minute were plotted against concentration of radiolabeled ligand added by subtracting the 100 fold excess counts from the uncompleted counts at each dilution point. These normalized data were plotted to generate saturation binding curves for each combination of radiolabeled ligand and transfected BHK cells.

[7] = biological target: T2, human IL-17RC (IL-17RCx1), full length …; test: saturation radioligand binding on BHK hIL-17RC cells, experiment 2; high affinity site of two-site fit
Description: as §2, §3

[8] = biological target: T1, mouse IL-17RCx1, on transfected cells; test: FACS, biotinylated cytokine on transfected cells; (+) = significant increase in fluorescence
[9] = biological target: T2, human IL-17RC (IL-17RCx1), full length …; test: saturation radioligand binding on BHK hIL-17RC cells, experiment 3; high affinity site of two-site fit
Description: as §2, §3

[10] = biological target: T2, human IL-17RC (IL-17RCx1), full length …; test: radioligand competition, 100x molar cold competitor, BHK hIL-17RC cells
Description: as §2

[11] = biological target: T4, human IL-17 receptor (IL-17R), on …; test: cell-based or functional assay

Binder | binding result [1] | binding result [2] | binding result [3] | binding result [4] | EC50, ap1/nfkb luciferase in nih3t3/kz142.8/hcytor14x1 pool [5] [ng/mL] | Kd [6] [nM] | Kd [7] [nM] | binding result [8] | Kd [9] [nM] | fold reduction of 125I IL-17A binding [10] [fold] | fold reduction of 125I IL-17F binding [10] [fold] | EC50, ap1/nfkb luciferase in hIL-17RA recombinant line [11] [ng/mL] | EC50, ap1/nfkb luciferase in hIL-17RCX1 recombinant line [5] [ng/mL] | fold more potent EC50 in the recombinant line vs the parental line [5] [fold]
B1 | no binding | no binding | binds | – | – | – | – | – | – | – | – | – | – | –
B2 | no binding | no binding | – | no binding | ~4 | – | – | – | – | – | – | – | – | –
B3 | – | – | – | – | – | 0.05 | 0.06 | binds | 0.08 | ~7 | ~5 | 12.4 | 0.61 | 17
